Test results published in article doi:10.1101/2024.10.13.617916.

Biological target: KaiB labeled with 6-iodoacetamidofluorescein (KaiB-6IAF) (Synechococcus elongatus) (UniProt Q79PF5)
Assay: other fluorescence titration

Chain of UniProt Q79PF5 (Q79PF5 whole entry): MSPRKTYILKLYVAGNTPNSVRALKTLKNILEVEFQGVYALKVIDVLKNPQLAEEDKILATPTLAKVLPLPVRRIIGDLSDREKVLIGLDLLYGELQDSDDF

B1: KaiC (natural protein)
chain: MTSAEMTSPNNNSEHQAIAKMRTMIEGFDDISHGGLPIGRSTLVSGTSGTGKTLFSIQFLYNGIIEFDEPGVFVTFEETPQDIIKNARSFGWDLAKLVDEGKLFILDASPDPEGQEVVGGFDLSALIERINYAIQKYRARRVSIDSVTSVFQQYDASSVVRRELFRLVARLKQIGATTVMTTERIEEYGPIARYGVEEFVSDNVVILRNVLEGERRRRTLEILKLRGTSHMKGEYPFTITDHGINIFPLGAMRLTQRSSNVRVSSGVVRLDEMCGGGFFKDSIILATGATGTGKTLLVSRFVENACANKERAILFAYEESRAQLLRNAYSWGMDFEEMERQNLLKIVCAYPESAGLEDHLQIIKSEINDFKPARIAIDSLSALARGVSNNAFRQFVIGVTGYAKQEEITGLFTNTSDQFMGAHSITDSHISTITDTIILLQYVEIRGEMSRAINVFKMRGSWHDKAIREFMISDKGPDIKDSFRNFERIISGSPTRITVDEKSELSRIVRGVQEKGPES
decrease of KaiB-6IAF fluorescence intensity at 3.5 uM KaiC: 60%
maximal quenching of KaiB-6IAF: 40%
